In patent US20180086841A1:

Columns and labels:
[1] = biological target: V30A; test: flow cytometry on CHO-K1 transfectants, left sub-column
[2] = biological target: K38A; test: as above
[3] = biological target: P8A; test: as above
[4] = biological target: G89A; test: as above
[5] = biological target: K31A; test: as above
[6] = biological target: R10A; test: as above
[7] = biological target: F28A; test: as above
[8] = biological target: E9A; test: as above
[9] = biological target: H36A; test: as above
[10] = biological target: R37A; test: as above
[11] = biological target: H60A; test: as above
[12] = biological target: P44A; test: as above
[13] = biological target: R93A; test: as above
[14] = biological target: R87A; test: as above
[15] = biological target: W90A; test: as above
[16] = biological target: I46A; test: as above
[17] = biological target: V49A; test: as above
[18] = biological target: N88A; test: as above
[19] = biological target: S63A; test: as above
[20] = biological target: Q91A; test: as above
[21] = biological target: W13A; test: as above
[22] = biological target: D43A; test: as above
[23] = biological target: Q41A; test: as above
[24] = biological target: G16A; test: as above
[25] = biological target: V30A; test: flow cytometry on CHO-K1 transfectants, right sub-column
[26] = biological target: K38A; test: as above
[27] = biological target: P8A; test: as above
[28] = biological target: G89A; test: as above
[29] = biological target: K31A; test: as above
[30] = biological target: R10A; test: as above
[31] = biological target: F28A; test: as above
[32] = biological target: E9A; test: as above
[33] = biological target: H36A; test: as above
[34] = biological target: R37A; test: as above
[35] = biological target: H60A; test: as above
[36] = biological target: P44A; test: as above
[37] = biological target: R93A; test: as above
[38] = biological target: R87A; test: as above
[39] = biological target: W90A; test: as above
[40] = biological target: I46A; test: as above
[41] = biological target: V49A; test: as above
[42] = biological target: N88A; test: as above
[43] = biological target: S63A; test: as above
[44] = biological target: Q91A; test: as above
[45] = biological target: W13A; test: as above
[46] = biological target: D43A; test: as above
[47] = biological target: Q41A; test: as above
[48] = biological target: G16A; test: as above
[49] = biological target: K17A; test: flow cytometry on CHO-K1 transfectants, left sub-column, cell hatched (loss of binding)
[50] = biological target: D32A; test: as above
[51] = biological target: Q15A; test: as above
[52] = biological target: K17A; test: flow cytometry on CHO-K1 transfectants, right sub-column, cell hatched (loss of binding)
[53] = biological target: D32A; test: as above
[54] = biological target: Q15A; test: as above
[55] = biological target: K17A; test: flow cytometry on CHO-K1 transfectants, left sub-column
[56] = biological target: D32A; test: as above
[57] = biological target: Q15A; test: as above
[58] = biological target: K17A; test: flow cytometry on CHO-K1 transfectants, right sub-column
[59] = biological target: D32A; test: as above
[60] = biological target: Q15A; test: as above
[61] = biological target: K38A; test: flow cytometry on CHO-K1 transfectants, left sub-column, cell hatched (loss of binding)
[62] = biological target: R37A; test: as above
[63] = biological target: K38A; test: flow cytometry on CHO-K1 transfectants, right sub-column, cell hatched (loss of binding)
[64] = biological target: R37A; test: as above
[65] = biological target: human CD27 (human) (UniProt P26842); test: flow cytometry on CHO-K1 cells transfected with CD27 (empty vector: GM FITC 212)
[66] = biological target: human CD27 (A59T) (human) (UniProt P26842); test: flow cytometry on CHO-K1 cells transfected with CD27 A59T (empty vector: + 5.32)
[67] = biological target: human CD27 (human) (UniProt P26842); test: flow cytometry on CHO-K1 cells transfected with CD27 (empty vector: + 5.32)
[68] = biological target: human CD27 (A59T) (human) (UniProt P26842); test: flow cytometry on CHO-K1 cells transfected with CD27 A59T (empty vector: GM FITC 212)

Q41A, sequence (receptor chain, as listed by the source Q41A Q41A limits assumed): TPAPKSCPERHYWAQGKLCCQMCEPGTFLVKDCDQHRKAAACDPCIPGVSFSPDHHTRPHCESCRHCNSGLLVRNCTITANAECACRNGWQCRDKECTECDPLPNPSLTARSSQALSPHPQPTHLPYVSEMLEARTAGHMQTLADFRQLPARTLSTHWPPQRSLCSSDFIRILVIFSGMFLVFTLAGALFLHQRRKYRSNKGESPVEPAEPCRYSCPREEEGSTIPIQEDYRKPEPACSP
H60A, sequence (receptor chain, as listed by the source H60A H60A limits assumed): as the sequence (receptor chain, as listed by the source Q41A Q41A limits assumed) above, with A41Q, H60A counted along it
R93A, sequence (receptor chain, as listed by the source R93A R93A limits assumed): as the sequence (receptor chain, as listed by the source Q41A Q41A limits assumed) above, with A41Q, R93A counted along it
Q15A, sequence (receptor chain, as listed by the source Q15A Q15A limits assumed): as the sequence (receptor chain, as listed by the source Q41A Q41A limits assumed) above, with Q15A, A41Q counted along it
D32A, sequence (receptor chain, as listed by the source D32A D32A limits assumed): as the sequence (receptor chain, as listed by the source Q41A Q41A limits assumed) above, with D32A, A41Q counted along it
Q91A, sequence (receptor chain, as listed by the source Q91A Q91A limits assumed): as the sequence (receptor chain, as listed by the source Q41A Q41A limits assumed) above, with A41Q, Q91A counted along it
E9A, sequence (receptor chain, as listed by the source limits assumed): as the sequence (receptor chain, as listed by the source Q41A Q41A limits assumed) above, with E9A, A41Q counted along it
F28A, sequence (receptor chain, as listed by the source F28A F28A limits assumed): as the sequence (receptor chain, as listed by the source Q41A Q41A limits assumed) above, with F28A, A41Q counted along it
N88A, sequence (receptor chain, as listed by the source N88A N88A limits assumed): as the sequence (receptor chain, as listed by the source Q41A Q41A limits assumed) above, with A41Q, N88A counted along it
K17A, sequence (receptor chain, as listed by the source K17A K17A limits assumed): as the sequence (receptor chain, as listed by the source Q41A Q41A limits assumed) above, with K17A, A41Q counted along it
R10A, sequence (receptor chain, as listed by the source R10A R10A limits assumed): as the sequence (receptor chain, as listed by the source Q41A Q41A limits assumed) above, with R10A, A41Q counted along it
W13A, sequence (receptor chain, as listed by the source W13A W13A limits assumed): as the sequence (receptor chain, as listed by the source Q41A Q41A limits assumed) above, with W13A, A41Q counted along it
D43A, sequence (receptor chain, as listed by the source D43A D43A limits assumed): as the sequence (receptor chain, as listed by the source Q41A Q41A limits assumed) above, with A41Q, D43A counted along it
W90A, sequence (receptor chain, as listed by the source W90A W90A limits assumed): as the sequence (receptor chain, as listed by the source Q41A Q41A limits assumed) above, with A41Q, W90A counted along it
G16A, sequence (receptor chain, as listed by the source G16A G16A limits assumed): as the sequence (receptor chain, as listed by the source Q41A Q41A limits assumed) above, with G16A, A41Q counted along it
I46A, sequence (receptor chain, as listed by the source I46A I46A limits assumed): as the sequence (receptor chain, as listed by the source Q41A Q41A limits assumed) above, with A41Q, I46A counted along it
P8A, sequence (receptor chain, as listed by the source limits assumed): as the sequence (receptor chain, as listed by the source Q41A Q41A limits assumed) above, with P8A, A41Q counted along it
P44A, sequence (receptor chain, as listed by the source P44A P44A limits assumed): as the sequence (receptor chain, as listed by the source Q41A Q41A limits assumed) above, with A41Q, P44A counted along it
S63A, sequence (receptor chain, as listed by the source S63A S63A limits assumed): as the sequence (receptor chain, as listed by the source Q41A Q41A limits assumed) above, with A41Q, S63A counted along it
K38A, sequence (receptor chain, as listed by the source K38A K38A limits assumed): as the sequence (receptor chain, as listed by the source Q41A Q41A limits assumed) above, with K38A, A41Q counted along it
Fc-mCD70, sequence (O55237 45-195): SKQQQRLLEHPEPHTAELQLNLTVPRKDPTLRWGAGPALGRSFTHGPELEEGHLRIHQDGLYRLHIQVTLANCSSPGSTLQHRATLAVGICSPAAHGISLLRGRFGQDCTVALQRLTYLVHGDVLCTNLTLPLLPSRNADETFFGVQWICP
V30A, sequence (receptor chain, as listed by the source V30A V30A limits assumed): as the sequence (receptor chain, as listed by the source Q41A Q41A limits assumed) above, with V30A, A41Q counted along it
R37A, sequence (receptor chain, as listed by the source R37A R37A limits assumed): as the sequence (receptor chain, as listed by the source Q41A Q41A limits assumed) above, with R37A, A41Q counted along it
H36A, sequence (receptor chain, as listed by the source H36A H36A limits assumed): as the sequence (receptor chain, as listed by the source Q41A Q41A limits assumed) above, with H36A, A41Q counted along it
G89A, sequence (receptor chain, as listed by the source G89A G89A limits assumed): as the sequence (receptor chain, as listed by the source Q41A Q41A limits assumed) above, with A41Q, G89A counted along it
V49A, sequence (receptor chain, as listed by the source V49A V49A limits assumed): as the sequence (receptor chain, as listed by the source Q41A Q41A limits assumed) above, with A41Q, V49A counted along it
K31A, sequence (receptor chain, as listed by the source K31A K31A limits assumed): as the sequence (receptor chain, as listed by the source Q41A Q41A limits assumed) above, with K31A, A41Q counted along it
R87A, sequence (receptor chain, as listed by the source R87A R87A limits assumed): as the sequence (receptor chain, as listed by the source Q41A Q41A limits assumed) above, with A41Q, R87A counted along it

1A4 (mouse IgG1) (antibody)
binding, WT hCD27 = 100 (GM FITC) [1]: 161%
binding, WT hCD27 = 100 (GM FITC) [2]: 104%
binding, WT hCD27 = 100 (GM FITC) [3]: 84.5%
binding, WT hCD27 = 100 (GM FITC) [4]: 100%
binding, WT hCD27 = 100 (GM FITC) [5]: 194%
binding, WT hCD27 = 100 (GM FITC) [6]: 107%
binding, WT hCD27 = 100 (GM FITC) [7]: 113%
binding, WT hCD27 = 100 (GM FITC) [8]: 98.2%
binding, WT hCD27 = 100 (GM FITC) [9]: 111%
binding, WT hCD27 = 100 (GM FITC) [10]: 115%
binding, WT hCD27 = 100 (GM FITC) [11]: 167%
binding, WT hCD27 = 100 (GM FITC) [12]: 146%
binding, WT hCD27 = 100 (GM FITC) [13]: 120%
binding, WT hCD27 = 100 (GM FITC) [14]: 143%
binding, WT hCD27 = 100 (GM FITC) [15]: 123%
binding, WT hCD27 = 100 (GM FITC) [16]: 129%
binding, WT hCD27 = 100 (GM FITC) [17]: 144%
binding, WT hCD27 = 100 (GM FITC) [18]: 154%
binding, WT hCD27 = 100 (GM FITC) [19]: 158%
binding, WT hCD27 = 100 (GM FITC) [20]: 146%
binding, WT hCD27 = 100 (GM FITC) [21]: 89.1%
binding, WT hCD27 = 100 (GM FITC) [22]: 195%
binding, WT hCD27 = 100 (GM FITC) [23]: 106%
binding, WT hCD27 = 100 (GM FITC) [24]: 90.8%
binding, WT hCD27 = 100 (GM FITC) [25]: 102%
binding, WT hCD27 = 100 (GM FITC) [26]: 97.7%
binding, WT hCD27 = 100 (GM FITC) [27]: 79.1%
binding, WT hCD27 = 100 (GM FITC) [28]: 81.8%
binding, WT hCD27 = 100 (GM FITC) [29]: 138%
binding, WT hCD27 = 100 (GM FITC) [30]: 113%
binding, WT hCD27 = 100 (GM FITC) [31]: 60%
binding, WT hCD27 = 100 (GM FITC) [32]: 122%
binding, WT hCD27 = 100 (GM FITC) [33]: 85.2%
binding, WT hCD27 = 100 (GM FITC) [34]: 87%
binding, WT hCD27 = 100 (GM FITC) [35]: 120%
binding, WT hCD27 = 100 (GM FITC) [36]: 90.5%
binding, WT hCD27 = 100 (GM FITC) [37]: 91.1%
binding, WT hCD27 = 100 (GM FITC) [38]: 108%
binding, WT hCD27 = 100 (GM FITC) [39]: 96.4%
binding, WT hCD27 = 100 (GM FITC) [40]: 82.7%
binding, WT hCD27 = 100 (GM FITC) [41]: 97%
binding, WT hCD27 = 100 (GM FITC) [42]: 116%
binding, WT hCD27 = 100 (GM FITC) [43]: 163%
binding, WT hCD27 = 100 (GM FITC) [44]: 120%
binding, WT hCD27 = 100 (GM FITC) [45]: 93.4%
binding, WT hCD27 = 100 (GM FITC) [46]: 93.4%
binding, WT hCD27 = 100 (GM FITC) [47]: 76.1%
binding, WT hCD27 = 100 (GM FITC) [48]: 97.3%
binding, WT hCD27 = 100 (GM FITC) [49]: 32.4%
binding, WT hCD27 = 100 (GM FITC) [50]: 43.7%
binding, WT hCD27 = 100 (GM FITC) [51]: 32%
binding, WT hCD27 = 100 (GM FITC) [52]: 6.8%
binding, WT hCD27 = 100 (GM FITC) [53]: 8.7%
binding, WT hCD27 = 100 (GM FITC) [54]: 7.6%

9F4 (mouse IgG2a) (antibody)
binding, WT hCD27 = 100 (GM FITC) [1]: 166%
binding, WT hCD27 = 100 (GM FITC) [3]: 68.5%
binding, WT hCD27 = 100 (GM FITC) [4]: 116%
binding, WT hCD27 = 100 (GM FITC) [5]: 207%
binding, WT hCD27 = 100 (GM FITC) [6]: 104%
binding, WT hCD27 = 100 (GM FITC) [7]: 115%
binding, WT hCD27 = 100 (GM FITC) [8]: 96.6%
binding, WT hCD27 = 100 (GM FITC) [9]: 88.5%
binding, WT hCD27 = 100 (GM FITC) [11]: 185%
binding, WT hCD27 = 100 (GM FITC) [12]: 159%
binding, WT hCD27 = 100 (GM FITC) [13]: 122%
binding, WT hCD27 = 100 (GM FITC) [14]: 153%
binding, WT hCD27 = 100 (GM FITC) [15]: 130%
binding, WT hCD27 = 100 (GM FITC) [16]: 137%
binding, WT hCD27 = 100 (GM FITC) [55]: 98%
binding, WT hCD27 = 100 (GM FITC) [17]: 151%
binding, WT hCD27 = 100 (GM FITC) [18]: 153%
binding, WT hCD27 = 100 (GM FITC) [19]: 153%
binding, WT hCD27 = 100 (GM FITC) [20]: 149%
binding, WT hCD27 = 100 (GM FITC) [21]: 90.7%
binding, WT hCD27 = 100 (GM FITC) [56]: 118%
binding, WT hCD27 = 100 (GM FITC) [22]: 201%
binding, WT hCD27 = 100 (GM FITC) [23]: 113%
binding, WT hCD27 = 100 (GM FITC) [24]: 94.7%
binding, WT hCD27 = 100 (GM FITC) [57]: 107%
binding, WT hCD27 = 100 (GM FITC) [25]: 95.6%
binding, WT hCD27 = 100 (GM FITC) [27]: 62.2%
binding, WT hCD27 = 100 (GM FITC) [28]: 77.5%
binding, WT hCD27 = 100 (GM FITC) [29]: 133%
binding, WT hCD27 = 100 (GM FITC) [30]: 99%
binding, WT hCD27 = 100 (GM FITC) [31]: 58.2%
binding, WT hCD27 = 100 (GM FITC) [32]: 109%
binding, WT hCD27 = 100 (GM FITC) [33]: 66.5%
binding, WT hCD27 = 100 (GM FITC) [35]: 126%
binding, WT hCD27 = 100 (GM FITC) [36]: 91.7%
binding, WT hCD27 = 100 (GM FITC) [37]: 91.1%
binding, WT hCD27 = 100 (GM FITC) [38]: 98.8%
binding, WT hCD27 = 100 (GM FITC) [39]: 85.7%
binding, WT hCD27 = 100 (GM FITC) [40]: 82.7%
binding, WT hCD27 = 100 (GM FITC) [58]: 106%
binding, WT hCD27 = 100 (GM FITC) [41]: 92.1%
binding, WT hCD27 = 100 (GM FITC) [42]: 104%
binding, WT hCD27 = 100 (GM FITC) [43]: 149%
binding, WT hCD27 = 100 (GM FITC) [44]: 111%
binding, WT hCD27 = 100 (GM FITC) [45]: 86.5%
binding, WT hCD27 = 100 (GM FITC) [59]: 66.3%
binding, WT hCD27 = 100 (GM FITC) [46]: 92.5%
binding, WT hCD27 = 100 (GM FITC) [47]: 71.3%
binding, WT hCD27 = 100 (GM FITC) [48]: 102%
binding, WT hCD27 = 100 (GM FITC) [60]: 118%
binding, WT hCD27 = 100 (GM FITC) [61]: 44.7%
binding, WT hCD27 = 100 (GM FITC) [62]: 35%
binding, WT hCD27 = 100 (GM FITC) [63]: 31.6%
binding, WT hCD27 = 100 (GM FITC) [64]: 6.2%

Fc-mCD70 (from UniProt O55237 45-195) (Fc fusion)
GM FITC [65]: 1280
cells in the + gate [66]: 52.5
cells in the + gate [67]: 58.9
GM FITC [68]: 1060
